Source: the supplement of paper PMC9170038

Test system: MS2 coat protein
Assay: apparent KD of MS2 coat protein; designed switch direction (-1 OFF switch, 1 ON switch): -1; higher = weaker reporter binding
Procedure, shortened: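 The buffer was Tris-HCl pH 7.5 with KCl, MgCl2, BSA, DTT, tRNA and Tween-20. In it, SNAP-549-labelled MS2 coat protein was titrated in doubling steps from 0.7 or 1.5 nM to 3 µM over chip-bound RNA switches transcribed by stalled E. coli RNA polymerase on Illumina chips. Apparent KD is the per-design median over clusters of curve fits to normalised fluorescence.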

[1] = input ligand: microRNA oligo, concentration not stated
[2] = Eterna round: R95, input ligand: FMN 200 uM
[3] = Eterna round: R95, input ligand: microRNA oligo, concentration not stated
[4] = Eterna round: R95, input ligand: none

| Sequence | apparent KD of MS2 coat protein (input ligand: FMN 200 uM) | apparent KD of MS2 coat protein [1] | apparent KD of MS2 coat protein (input ligand: none) | apparent KD of MS2 coat protein [2] | apparent KD of MS2 coat protein [3] | apparent KD of MS2 coat protein [4] |
| --- | --- | --- | --- | --- | --- | --- |
| AGUCCUAACACGAAAGUGUUAGUACAAUAAGCUUGUGAAACAUGAGGAUCACCCAUGUCCUCAUAAGCUCGUCUUAU [salish99_TOv2_r3_015] (Eterna round: R96, puzzle: Sensor v3, turn-off variant 2) | 15.3 nM | 449 nM | 17.7 nM |  |  |  |
| CGCAUGUGAGGAUAUUAGUAGUAGUCAGAAUAGACUAUUACUGAGAAGGUACAUGAGGAUCACCCAUGUAUCCG [Eli x4 4.21] (Eterna round: R97, puzzle: Exclusion 4) | 28.5 nM |  | 17.1 nM |  |  |  |
| ACCUAAAAGCUAGGAUAUACAUGAGGAUCACCCAUGUACACAGGAAGACUAACCUGUGGACUCAUGUAGAAGGAGCAUGACAAA [Raengearle] (Eterna round: R96, puzzle: Exclusion NG 2) | 117 nM | 349 nM | 283 nM |  |  |  |
| UAUGGUUAAGUCAGGAUAUGCACGAAGAGGUCUAUGCAGAAGGGACAUGAGGAUCACCCAUGUAAAGUCGUGUU [Ex4 #72] (Eterna round: R97, puzzle: Brourd's mod of Exclusion 4) | 57.3 nM |  | 36.6 nM |  |  |  |
| GUUGGGUGAUGAUACAUGAGGAUCACCCAUGUUAAAAGUCAUUAGGAUAUCCCGACGGCCGGUUAGGAGAAGGAGUGACCAGGC [Maonma] (Eterna round: R96, puzzle: Exclusion NG 3) | 636 nM | 285 nM | 429 nM |  |  |  |
| GGUGAGAGCAAGGAUAUGCAGAAGAGAGAAAGAGCAGAAGGUGCUACAUGAGGAUCACCCAUGUAGGAUGUGUU [JR_E6_Sub013] (puzzle: Exclusion 6) |  |  |  | 15.2 nM | 13.4 nM | 13.4 nM |
| AGUAACCGUCACGAAAGUGAUGGUUACGCAAGCAAAUGUACAUGAGGAUCACCCAUGUCCUCAUUUGCUCGUCUUAU [Sensor 3 - 43] (puzzle: Sensor v3, turn-off variant 2) |  |  |  | 19.6 nM | 362 nM | 17.7 nM |
| GAGGGACAUGAGGAUCACCCAUGUGAGGAUAUGUAAGAGAGAGGAGAGAGGAUAAGAAACAGAAGGCGCGUGAG [JR_Exclu1_Sub089] (puzzle: Exclusion 1) |  |  |  | 30.1 nM | 55.7 nM | 43.2 nM |
| CCGGAAAGGGAGGAUAUAGGAGUCGAUAGACACCUAGAAGGCCUGACAUGAGGAUCACCCAUGUGUCCUACCGG [Fiskers Ex 6 - 91] (puzzle: Exclusion 6) |  |  |  |  | 13.7 nM |  |
| CGGCCUCGAGGAUAUGCUAUAAAAUGACCUUGGGUCAAAUGACUUGAGGAUCACCCAAGUAGAAGGCGAAAGCC [Bibice] (Eterna round: R97, puzzle: Exclusion 2) | 102 nM |  | 93 nM |  |  |  |
| GCGCCAUCGUGAGAUGGCGUAACUACAUGAGGAUCACCCAUGUAGGAUAUCGAUUGCUUUGCAGUCGAGAAGGGCGAGGGAUUU [JL ENG3 3.89] (Eterna round: R96, puzzle: Exclusion NG 3) | 18.1 nM | 13.2 nM | 17.6 nM |  |  |  |
| ACAUGAGGAUCACCCAUGUCCGGCUGGUCUGGUCCGGCUGUCGAGGAUAUAGUCCGGUGUUCGCGCUAGAAGGCGAGGGCUGGA [Aenatbe mod 49] (Eterna round: R96, puzzle: Exclusion NG 3) | 109 nM | 68.3 nM | 97.5 nM |  |  |  |
| GAUCUGACAGGAUAUACAUGAGGAUCACCCAUGUGCGAGCUAGCGAAAGCUAGCUCAGGUAGAAGGGUCAGAUC [Ex3 dot plot directed] (Eterna round: R96, puzzle: Exclusion 3) | 15.1 nM | 13.1 nM | 15.7 nM |  |  |  |
| AAAUACAAGUAAAGAUCCUACAUGAGGAUCACCCAUGUGUUCGUCUUAUAAAGUACUAUCACGAAAGUGAUAGUACA [Sensor 3, v1 - 24] (puzzle: Sensor v3, turn-off variant 1) |  |  |  | 89 nM | 131 nM | 131 nM |
| AUGAUGCAGUGAGGAUAUACAUGAGGAUCACCCAUGUUUUUUUUUUUAGAUACACUCCUUUUUUUGUAGAAGGCACUAUGAGUA [Skinny design] (Eterna round: R96, puzzle: Exclusion NG 2) | 121 nM | 24 nM | 46.3 nM |  |  |  |
| UUUACAAGCUAAAGAUCCCACAUGAGGAUCACCCAUGUUGCUGCCGGUGACGGUAGCAUAACUUUUGCUCGUCUUAU [JL TOV1 3.59] (Eterna round: R97, puzzle: Sensor, turn-off variant 1) | 278 nM |  | 342 nM |  |  |  |
| AUUAUAUAGUAAGGAUAUUGAUUAUUAUUUUAACAUGAGGAUCACCCAUGUAGCCUUAUGUAUAACAAGAAGGUACAUUUAUUA [Title] (Eterna round: R96, puzzle: Exclusion NG 2) |  | 44.5 nM |  |  |  |  |
| AUCUUGUCAGGAUAUCGUACAAUAUGGAAAACAUAGAGGUACGAGAAGGGACAUGAGGAUCACCCAUGUAAAAC (Eterna round: R96, puzzle: Exclusion 4) |  | 29 nM |  |  |  |  |
| UUUGUAUAUGAAGGAUAUACUUAACAUGAGGAUCACCCAUGUGGUGUUGUGAGUGAGUGAGUUUAGUAGAAGGUCAAGUAUUUU [JMF's solution 50] (Eterna round: R96, puzzle: Exclusion NG 2) | 403 nM | 298 nM | 367 nM |  |  |  |
| UCUGGUCGAGGAUAUACAUUCGUGCUUCGGCACGUAAGGUCACAUGAGGAUCACCCAUGUAGAAGGCGACCAGA [E2/7-A3] (Eterna round: R97, puzzle: Exclusion 2) | 181 nM |  | 38.4 nM |  |  |  |
| UUUAAUUUAAUUAAGAUCACAUGAGGAUCACCCAUGUAAUUAUAGGAUAUCAGCUCGAAUAGAGCUGAGAAGGAUAAUUACAUA [ExNG3/5-A4] (Eterna round: R96, puzzle: Exclusion NG 3) |  | 67.6 nM |  |  |  |  |
| UAACAUGUAGAAGGAUAUCUGCACGUUUAGUGCAGAGAAGGUCUAACAUGAGGAUCACCCAUGUAGAUCAUUAAUUAAUUAAUU [ENG1/8-B2] (Eterna round: R96, puzzle: Exclusion NG 1) | 15.8 nM | 9.45 nM | 12.9 nM |  |  |  |
| AUGUGCACGCUGCGGUCCUACAUGAGGAUCACCCAUGUGGUCUGGUGGCGUGGGUCGCCGGACUUGGCUCGUCUUGA [salish99_S_TOV1_R5_029] (Eterna round: R97, puzzle: Sensor, turn-off variant 1) | 17.9 nM |  | 18.2 nM |  |  |  |
